Experiment [1] concerns the target T1, PDZ domain of the human MAST2 protein (human), Q6P0Q8.
T1 chain: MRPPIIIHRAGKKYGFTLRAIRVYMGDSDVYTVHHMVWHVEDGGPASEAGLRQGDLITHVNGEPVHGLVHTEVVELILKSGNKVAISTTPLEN
Description: ITC, 298 K, MAST2-PDZ titrated with peptide. For orientation: ITC needs no label: the signal is the heat of the interaction.

For experiment [2], the target named is T1, PDZ domain of the human MAST2 protein ….

On to SWEVHGQQTRL (modifications not checked) [454 (Neurovita 3)], for which, in experiment [1], the TΔS (entropy) amounted to 1110, the n (stoechiometry) was 1.01 and the ΔH (enthalpy) is -8720. Also, in experiment [2], the gain of affinity as compared to Neurovita1 turned out to be 20 fold.

The record behind these values is US20140315822A1.
